Consider 94 variants from the supplement of paper PMC10567573.

B1: ZNF263 (parent)
chain: RTHTGEKPYKCTLCGENFSHRSNL
B2: CSTF3 (parent)
chain: YVPEKVKKAEKKLEENPYDLDAWS
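Also: lentivirally expressed fusions sorted by FACS into six bins by GFP to DsRed ratio, PSI derived from sequencing read proportions per bin multiplied by bin number.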

The variants in the first data set derive from B1. Put plainly: protein stability index of a GFP-peptide fusion (GPS, HEK-293T) (PSI 1-6); higher = more stable. The conditions noted are these: c terminus: a fixed tail appended.
With RTHLGEKPYKCTLCGENFSHRSNL [T4L], the protein stability index came out at 1.79.

Variants of B2 are the subject of the next data set. The description is as above. To be noted: c terminus: a fixed tail appended.
YVPEKVKKAEKKLEENPYDLYAWS [D21Y]: the protein stability index was determined as 2.19.

As to YVPEKVKKAEKKLEENPYDLFAWS [D21F], the protein stability index amounted to 2.63.

Turning to YVPEKVKKAEKKLEENPYDLMAWS [D21M], the protein stability index was 3.19.

Take YVPEKVKKAEKKLEENPYDLEAWS [D21E]: the protein stability index stood at 3.37.

Consider YVPEKVKKAEKKLEENPYDLAAWS [D21A], for which the protein stability index was determined as 2.98.

As for YVPEKVKKAEKKLEENPYDLSAWS [D21S], the protein stability index is 2.21.

Regarding YVPEKVKKAEKKLEENPYDLWAWS [D21W], the protein stability index is 2.24.

Regarding YVPEKVKKAEKKLEENPYDLIAWS [D21I], the protein stability index amounted to 3.3.

YVPEKVKKAEKKLEENPYDLQAWS [D21Q]: the protein stability index amounted to 2.86.

With YVPEKVKKAEKKLEENPYDLHAWS [D21H], the protein stability index was 2.43.

As to YVPEKVKKAEKKLEENPYDLPAWS [D21P], the protein stability index is 1.43.

Take YVPEKVKKAEKKLEENPYDLVAWS [D21V]: the protein stability index came to 1.83.

Take YVPEKVKKAEKKLEENPYDLRAWS [D21R]: the protein stability index turned out to be 2.03.

Turning to YVPEKVKKAEKKLEENPYDLLAWS [D21L], the protein stability index was 1.99.

Take YVPEKVKKAEKKLEENPYDLNAWS [D21N]: the protein stability index is 4.07.

As to YVPEKVKKAEKKLEENPYDLGAWS [D21G], the protein stability index stood at 2.66.

Regarding YVPEKVKKAEKKLEENPYDLDCWS [A22C], the protein stability index worked out at 2.59.

As for YVPEKVKKAEKKLEENPYDLDWWS [A22W], the protein stability index worked out at 2.73.

Turning to YVPEKVKKAEKKLEENPYDLDPWS [A22P], the protein stability index was 2.47.

In the case of YVPEKVKKAEKKLEENPYDLDRWS [A22R], the protein stability index stood at 2.65.

In the case of YVPEKVKKAEKKLEENPYDLDKWS [A22K], the protein stability index amounted to 1.36.

Regarding YVPEKVKKAEKKLEENPYDLDDWS [A22D], the protein stability index was found to be 1.67.

Take YVPEKVKKAEKKLEENPYDLDLWS [A22L]: the protein stability index came out at 3.05.

Turning to YVPEKVKKAEKKLEENPYDLDFWS [A22F], the protein stability index came out at 1.8.

With YVPEKVKKAEKKLEENPYDLDQWS [A22Q], the protein stability index was 2.98.

Take YVPEKVKKAEKKLEENPYDLDNWS [A22N]: the protein stability index turned out to be 2.26.

Turning to YVPEKVKKAEKKLEENPYDLDHWS [A22H], the protein stability index was found to be 3.16.

Take YVPEKVKKAEKKLEENPYDLDMWS [A22M]: the protein stability index stood at 2.48.

As to YVPEKVKKAEKKLEENPYDLDVWS [A22V], the protein stability index turned out to be 3.55.

Consider YVPEKVKKAEKKLEENPYDLDSWS [A22S], for which the protein stability index worked out at 2.38.

In the case of YVPEKVKKAEKKLEENPYDLDYWS [A22Y], the protein stability index is 2.36.

As to YVPEKVKKAEKKLEENPYDLDTWS [A22T], the protein stability index amounted to 1.88.

YVPEKVKKAEKKLEENPYDLDIWS [A22I]: the protein stability index amounted to 2.39.

With YVPEKVKKAEKKLEENPYDLDGWS [A22G], the protein stability index was found to be 2.4.

For the variant YVPEKVKKAEKKLEENPYDLDEWS [A22E], the protein stability index was 2.29.

On to YVPEKVKKAEKKLEENPYDLDAHS [W23H], for which the protein stability index was 1.95.

Consider YVPEKVKKAEKKLEENPYDLDAAS [W23A], for which the protein stability index is 1.81.

In the case of YVPEKVKKAEKKLEENPYDLDATS [W23T], the protein stability index turned out to be 2.64.

With YVPEKVKKAEKKLEENPYDLDAYS [W23Y], the protein stability index came to 1.77.

As for YVPEKVKKAEKKLEENPYDLDAES [W23E], the protein stability index came out at 1.28.

For the variant YVPEKVKKAEKKLEENPYDLDAVS [W23V], the protein stability index came out at 2.38.

On to YVPEKVKKAEKKLEENPYDLDAPS [W23P], for which the protein stability index was 3.22.

With YVPEKVKKAEKKLEENPYDLDANS [W23N], the protein stability index was determined as 3.51.

In the case of YVPEKVKKAEKKLEENPYDLDAFS [W23F], the protein stability index was determined as 3.27.

With YVPEKVKKAEKKLEENPYDLDASS [W23S], the protein stability index turned out to be 2.6.

With YVPEKVKKAEKKLEENPYDLDARS [W23R], the protein stability index is 2.81.

Take YVPEKVKKAEKKLEENPYDLDAIS [W23I]: the protein stability index is 2.37.

With YVPEKVKKAEKKLEENPYDLDALS [W23L], the protein stability index was found to be 2.93.

Regarding YVPEKVKKAEKKLEENPYDLDAKS [W23K], the protein stability index was 1.84.

Consider YVPEKVKKAEKKLEENPYDLDAMS [W23M], for which the protein stability index is 3.05.

YVPEKVKKAEKKLEENPYDLDAGS [W23G]: the protein stability index was 3.81.

Regarding YVPEKVKKAEKKLEENPYDLDADS [W23D], the protein stability index worked out at 1.91.

Take YVPEKVKKAEKKLEENPYDLDAQS [W23Q]: the protein stability index is 1.79.

In the case of YVPEKVKKAEKKLEENPYDLDACS [W23C], the protein stability index amounted to 2.38.

Take YVPEKVKKAEKKLEENPYDGDAWS [L20G]: the protein stability index stood at 2.15.

On to YVPEKVKKAEKKLEENPYDQDAWS [L20Q], for which the protein stability index stood at 2.79.

With YVPEKVKKAEKKLEENPYDKDAWS [L20K], the protein stability index amounted to 1.96.

For the variant YVPEKVKKAEKKLEENPYDIDAWS [L20I], the protein stability index was 1.97.

On to YVPEKVKKAEKKLEENPYDMDAWS [L20M], for which the protein stability index is 1.91.

For the variant YVPEKVKKAEKKLEENPYDCDAWS [L20C], the protein stability index came out at 2.71.

With YVPEKVKKAEKKLEENPYDTDAWS [L20T], the protein stability index came to 3.25.

For YVPEKVKKAEKKLEENPYDADAWS [L20A], the protein stability index worked out at 2.54.

On to YVPEKVKKAEKKLEENPYDEDAWS [L20E], for which the protein stability index was determined as 1.76.

As for YVPEKVKKAEKKLEENPYDWDAWS [L20W], the protein stability index turned out to be 1.55.

Take YVPEKVKKAEKKLEENPYDFDAWS [L20F]: the protein stability index worked out at 1.44.

Turning to YVPEKVKKAEKKLEENPYDPDAWS [L20P], the protein stability index stood at 2.23.

For the variant YVPEKVKKAEKKLEENPYDYDAWS [L20Y], the protein stability index worked out at 2.13.

In the case of YVPEKVKKAEKKLEENPYDRDAWS [L20R], the protein stability index was found to be 2.9.

In the case of YVPEKVKKAEKKLEENPYDSDAWS [L20S], the protein stability index amounted to 2.24.

In the case of YVPEKVKKAEKKLEENPYDHDAWS [L20H], the protein stability index was 2.84.

For the variant YVPEKVKKAEKKLEENPYDVDAWS [L20V], the protein stability index came out at 3.2.

As for YVPEKVKKAEKKLEENPYDDDAWS [L20D], the protein stability index was found to be 1.73.

As to YVPEKVKKAEKKLEENPYYLDAWS [D19Y], the protein stability index came to 2.69.

As for YVPEKVKKAEKKLEENPYWLDAWS [D19W], the protein stability index came out at 2.98.

For the variant YVPEKVKKAEKKLEENPYDLDAWF [S24F], the protein stability index stood at 2.83.

Turning to YVPEKVKKAEKKLEENPYDLDAWT [S24T], the protein stability index is 2.81.

As to YVPEKVKKAEKKLEENPYDLDAWG [S24G], the protein stability index is 3.98.

As for YVPEKVKKAEKKLEENPYDLDAWI [S24I], the protein stability index was found to be 1.86.

YVPEKVKKAEKKLEENPYDLDAWR [S24R]: the protein stability index was 2.02.

Regarding YVPEKVKKAEKKLEENPYDLDAWH [S24H], the protein stability index was 1.95.

As for YVPEKVKKAEKKLEENPYDLDAWE [S24E], the protein stability index turned out to be 1.36.

For YVPEKVKKAEKKLEENPYDLDAWV [S24V], the protein stability index came out at 2.85.

For YVPEKVKKAEKKLEENPYDLDAWK [S24K], the protein stability index is 2.79.

As for YVPEKVKKAEKKLEENPYDLDAWN [S24N], the protein stability index turned out to be 2.26.

Regarding YVPEKVKKAEKKLEENPYDLDAWY [S24Y], the protein stability index is 3.69.

In the case of YVPEKVKKAEKKLEENPYDLDAWM [S24M], the protein stability index was determined as 2.15.

With YVPEKVKKAEKKLEENPYDLDAWC [S24C], the protein stability index worked out at 3.61.

As to YVPEKVKKAEKKLEENPYDLDAWA [S24A], the protein stability index is 3.55.

Consider YVPEKVKKAEKKLEENPYDLDAWL [S24L], for which the protein stability index turned out to be 3.1.

As to YVPEKVKKAEKKLEENPYDLDAWD [S24D], the protein stability index was determined as 2.21.

For the variant YVPEKVKKAEKKLEENPYDLDAWW [S24W], the protein stability index came out at 1.66.

As to YVPEKVKKAEKKLEENPYDLDAWQ [S24Q], the protein stability index stood at 2.23.

As for YVPEKVKKAEKKLEENPYDLDAWP [S24P], the protein stability index came to 2.56.
